Results: article PMC10165364, “Pathological variants in TOP3A cause distinct disorders of mitochondrial and nuclear genome stability”

Biological target: T1, TOP3A WT (Homo sapiens, UniProt Q13472 16-934)
T1 sequence: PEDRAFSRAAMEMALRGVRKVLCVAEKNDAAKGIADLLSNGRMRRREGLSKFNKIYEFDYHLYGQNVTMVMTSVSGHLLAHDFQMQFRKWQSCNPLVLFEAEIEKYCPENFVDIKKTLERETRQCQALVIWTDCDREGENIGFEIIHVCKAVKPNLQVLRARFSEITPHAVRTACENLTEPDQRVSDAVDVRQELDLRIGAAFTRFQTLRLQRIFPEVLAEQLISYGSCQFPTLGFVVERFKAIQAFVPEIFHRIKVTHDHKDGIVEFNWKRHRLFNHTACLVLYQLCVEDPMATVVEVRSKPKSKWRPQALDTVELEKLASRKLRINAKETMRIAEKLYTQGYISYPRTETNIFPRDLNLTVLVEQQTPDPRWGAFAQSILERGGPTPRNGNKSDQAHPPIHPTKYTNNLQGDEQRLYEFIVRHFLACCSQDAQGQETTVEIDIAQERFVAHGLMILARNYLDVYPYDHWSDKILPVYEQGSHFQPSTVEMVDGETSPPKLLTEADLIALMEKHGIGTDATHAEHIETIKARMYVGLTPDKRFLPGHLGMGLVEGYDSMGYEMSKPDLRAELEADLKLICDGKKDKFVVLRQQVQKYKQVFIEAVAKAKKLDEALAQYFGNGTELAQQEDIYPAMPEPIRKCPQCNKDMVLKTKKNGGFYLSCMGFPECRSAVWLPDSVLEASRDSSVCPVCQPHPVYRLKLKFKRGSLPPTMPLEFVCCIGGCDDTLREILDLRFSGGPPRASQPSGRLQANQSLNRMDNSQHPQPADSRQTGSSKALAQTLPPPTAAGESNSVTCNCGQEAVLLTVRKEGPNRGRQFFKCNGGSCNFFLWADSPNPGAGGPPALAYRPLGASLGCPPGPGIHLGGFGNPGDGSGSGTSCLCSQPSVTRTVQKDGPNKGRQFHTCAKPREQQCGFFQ
Assay: EMSA; two shifted bands (two TOP3A molecules); 25 mM HEPES pH 7.5, 70 mM NaCl, 100 ug/ml BSA, 1 mM DTT, 10% glycerol; 10 fmol oligo, 0-250 fmol TOP3A in 20 ul; 37 C 15 min, then ice; 8% native PAGE in 0.5x TBE at 4 C
Details: protein: recombinant; tags: N-terminal TEV-cleavable 6xHis, cleaved; label: 5' 32P; single strand

B1: EMSA substrate 80-mer (ssDNA)
DNA: ACCACATTAACAACATAAAACCCTCATTCACACGAGAAAACACCCTCATGTTCATACACCTATCCCCCATTCTCCTCCTA
binding result: binds
